Several values for one entry are separate records, joined by “and”; a condition that tells them apart may be missing. Identical values can stand only once.
Tests used:
[1] = molecular target: free-tag TSWV N protein (tomato spotted wilt virus (Yunnan isolate)); experiment: native gel or EMSA; 4-16% discontinuous blue native PAGE at 4 °C, cathode buffer 100 mM histidine pH 8.0 with 0.002% Coomassie G-250; purified N protein without PEI treatment (carries E. coli RNA); self-association
[2] = molecular target: His6-tagged nucleocapsid (N) protein of tomato spotted wilt virus (TSWV) (tomato spotted wilt virus (Yunnan isolate)); experiment: cross-linking; 30 ug purified N protein with increasing glutaraldehyde, 37 °C for 5 min, quenched with Tris-HCl pH 7.5; 5-20% SDS-PAGE, Coomassie staining; self-association

Substance: free-tag TSWV N protein (natural protein)
- stoichiometry N [1]: 2 and 3 and 4

Substance: His6-tagged nucleocapsid (N) protein of tomato spotted wilt virus (TSWV) (natural protein)
- stoichiometry N [2]: > 3 and 2 and 3

From article PMC4326804
